Values of other authors as cited in US20130079279A1, “PHARMACEUTICAL COMPOSITION COMPRISING AVE0010 AND INSULIN GLARGINE” (SANOFI-AVENTIS DEUTSCHLAND GMBH, priority 2010, published 2013).

System: anti-lixisenatide antibodies
Details: previous study ACT6011; end of a two week period after repeated injections

desPro^36Exendin-4(1-39)-Lys6-NH2 [lixisenatide]
Anti-lixisenatide antibodies: not detected
